# Test results taken from publication PMC4914967, “An evolutionarily conserved SSNA1/DIP13 homologue is a component of both basal and apical complexes of Toxoplasma gondii” (Scientific Reports, 2016).
# Target: the molecule itself
# Assay: SDS-PAGE with Coomassie staining and anti-His immunoblot; purified His-tagged recombinant TgDIP13 resolved on a gel; bands at ~18 kDa (monomer) and ~36 kDa (dimer)
protein,measurement,value
"His-tagged recombinant TgDIP13 (Toxoplasma gondii SSNA1/DIP13 homologue) (natural protein, UniProt A0A125YRV3 1-150, looked up, TgDIP13, the SSNA1/DIP13 homologue of Toxoplasma gondii (ToxoDB entry TGME49_295450); the TgDIP13 gene was amplified from T. gondii cDNA with primers ML2448/ML2449 and cloned NdeI/XhoI into pET24a+; Apparent mass of the monomer ~18 kDa; also called T. gondii SSNA1/DIP13 homologue; not shown: His6, C-terminal, kept) MTSTTNSNLHNYNHELVACIDDLRRKREEVHRQIIKEEEDRAKVQKEIALLQERLQKLNDSITRKIQARNEYDKTILETEAAYTKILESAQTLLHVLKRESVHLGRKTSGDRAELPGIGITGVGVDYSPNSVSELSHRRAEKGKPTAGAG",stoichiometry N,2
